Reference: US8133978

How the values were obtained:
[1] = target: Human interleukin-18 (recombinant human IL-18) (human) (UniProt Q14116); test: ELISA, IL-18 bp-Fc coated at 0.5 ug/ml, human IL-18 added at 100 ng/ml, antibody titrated, detection anti-rat IgG HRP, Abs 490 nm
[2] = target: Human interleukin-18 (recombinant human IL-18) (human) (UniProt Q14116); test: cell-based or functional assay

Sequence of Human interleukin-18 (recombinant human IL-18) (human) (Q14116 37-193 limits assumed): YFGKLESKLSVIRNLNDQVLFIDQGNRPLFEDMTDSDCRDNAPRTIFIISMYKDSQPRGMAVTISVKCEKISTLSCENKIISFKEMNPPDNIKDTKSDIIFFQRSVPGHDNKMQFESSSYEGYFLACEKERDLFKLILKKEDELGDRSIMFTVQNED

EC50 (read off the curve) [1]: 0.04 µg/mL
IC50, LPS-stimulated IFNγ release, human PBMC, Donor 1 10% serum [2]: 0.023
IC50, LPS-stimulated IFNγ release, human PBMC, Donor 1 25% serum [2]: 0.069
IC50, LPS-stimulated IFNγ release, human PBMC, Donor 3 10% serum [2]: 0.033
IC50, LPS-stimulated IFNγ release, human PBMC, Donor 3 25% serum [2]: 0.086
complete inhibition of IL-18 mediated IFNγ release, LPS-stimulated human PBMC, 10% or 25% human serum [2]: > 1 µg/mL
inhibition of LPS-induced IFNγ production in human PBMC [2]: 1 µg/mL
B1: Parental rat antibody 2C10 (antibody, from another filing, V domains shown)
VH: EVQLQQSGAELVRPGTSVKLSCKVSGEISTGYYFHFVRRRPGQGLEWIGRIDPEDDSTKYAERFKDRATLTAQTSSNTAYLNLSSLTSEDTATYFCTTWRIYRDSSGRPFYVMDAWGQGASVTVSS
VL: DIQMTQSPASLSASLGETVSIECLASEDIYTYLTWYQQKPGKSPQLLIYGANKLQDGVPSRFSGSGSGTQYSLKISGIQPEDEGDYFCLQGSKFPLTFGSGTKLEIKR
